This assay has as its target T1, recombinant GST-YOD1 (UniProt Q5VVQ6 1-348).
T1 construct: YOD1 (OTUD2, DUBA8); A GST-YOD1 truncation product is seen in the blots (asterisk)
Briefly: pull-down; GST-YOD1 (or GST) on Glutathione Sepharose 4B; candidate protein incubated 2 hr at 4°C in assay buffer with 0,5% Triton X100; Western blot or Coomassie. The following applies: both partners purified.

B1: HIS-TRAF6 CC-MATH (310-522) (domain or fragment, UniProt Q9Y4K3 310-522, looked up)
chain: DHQIRELTAKMETQSMYVSELKRTIRTLEDKVAEIEAQQCNGIYIWKIGNFGMHLKCQEEEKPVVIHSPGFYTGKPGYKLCMRLHLQLPTAQRCANYISLFVHTMQGEYDSHLPWPFQGTIRLTILDQSEAPVRQNHEEIMDAKPELLAFQRPTIPRNPKGFGYVTFMHLEALRQRTFIKDDTLLVRCEVSTRFDMGSLRREGFQPRSTDAGV
notes: TRAF6, coiled-coil and MATH domains, residues 310-522; also called HIS-TRAF6 310–522; TRAF6 C-terminus
B1: the binding result is listed as “binds”.

B2: HIS-TRAF6 MATH (346-504) (domain or fragment, UniProt Q9Y4K3 346-504, looked up)
chain: AQQCNGIYIWKIGNFGMHLKCQEEEKPVVIHSPGFYTGKPGYKLCMRLHLQLPTAQRCANYISLFVHTMQGEYDSHLPWPFQGTIRLTILDQSEAPVRQNHEEIMDAKPELLAFQRPTIPRNPKGFGYVTFMHLEALRQRTFIKDDTLLVRCEVSTRFD
notes: also called C-terminal HIS-TRAF6 MATH; TRAF6 MATH domain
Turning to B2, the binding result was “binds”.
